# Results reported in the RNAGym collection of RNA variant scans (doi:10.7554/elife.90254).
# B1: LINE1-full (parent)
# chain: UACGUAGGUGGUUUUCCCCUGAUAGUGCUAAGGGGGCCUGGAAGUUUGGACUGGGCAGAGCUCAACACAGCGUGGCAAAGUGGCUGUGGCUAGACUGCCUCUCUGGAUUCCUCGUCACUCAGCAGGGCAUCUCUGAGAGAAAUGCC
# Variants of: B1
# Assay: self-cleavage, relative activity (ratio to wild type); higher = more cleavage; in vitro, sequencing; the parent is a self-cleaving ribozyme
row,Variant,self-cleavage
1,UACGUAGGUGGUUUUCCCCUGAUAGUGCUAAGGGGGCCUGGAAGUUUGGACUGGGCAGAGCUCAACACAGCGUGGAAAAGUGGCUGUGGCUAGACUGCCUCCCUGGAUUCCUCGUCACUCAGCAGGGCAUCUCUGAGAGAAAUGCC [C76A U102C],1.39
2,UACGUAGGUGGUUUUCCCCUGAUAGUGCUAAGGGGGCCUGGAAGUUUGGACUGGGCAGAGCUCAACACAGCGUGUCAAAGUGGCUGUGGCUAGACUGCCUCUCUGGAUUCCUCGUCACUCAGCAGGGCAUCUCUGAGAAAAAUGCC [G75U G139A],0.89
3,UACGUAGGUGGUUUUCCCCUGAUAGUGCUAAGGGGGCCUGGAAGUUUGGACUGGGCAGAGCUCAACACAGCGUGGAAGAGUGGCUGUGGCUAGACUGCCUCUCUGGAUUCCUCGUCACUCAGCAGGGCAUCUCUGAGAGAAAUGCC [C76A A78G],1.68
4,UACGUAGGUGGUUUUCCCCUGAUAGUGCUAAGGGGGCCUGGAAGUUUGGACUGGGCAGAGCUCAACACAGCGUGGAAAAGUGGCUGUGGCUAGACUGCCUCUCUGGAUUCCUCGUCACUCAGCAGGGCAUCUCUGAGAGAAGUGCC [C76A A142G],1.87
5,UACGUAGGUGGUUUUCCCCUGAUAGUGCUAAGGGGGCCUGGAAGUUUGGACUGGGCAGAGCUCAACACAGCGUGUCAAAGCGGCUGUGGCUAGACUGCCUCUCUGGAUUCCUCGUCACUCAGCAGGGCAUCUCUGAGAGAAAUGCC [G75U U81C],0.83
6,UACGUAGGUGGUUUUCCCCUGAUAGUGCUAAGGGGGCCUGGAAGUUUGGACUGGGCAGAGCUCAACACAGCGUGGUAAAGUGGCUGUGGCUGGACUGCCUCUCUGGAUUCCUCGUCACUCAGCAGGGCAUCUCUGAGAGAAAUGCC [C76U A92G],0.06
7,UACGUAGGUGGUUUUCCCCUGAUAGUGCUAAGGGGGCCUGGAAGUUUGGACUGGGCAGAGCUCAACACAGCGUGGUAAAGUGGCUGUGGCUAGACUGCCUCUCUGGAUUCCUCGUCACUCAGCAGGGCAUCUCUGAGAGAGAUGCC [C76U A141G],1.18
8,UACGUAGGUGGUUUUCCCCUGAUAGUGCUAAGGGGGCCUGGAAGUUUGGACUGGGCAGAGCUCAACACAGCGUGGUAAAGUGGCUGUGGCUAGACUGCCUCUCUGGAUUCCUCGUCACUCAGCAGGGCAUCUCUGAGAGACAUGCC [C76U A141C],1.29
9,UACGUAGGUGGUUUUCCCCUGAUAGUGCUAAGGGGGCCUGGAAGUUUGGACUGGGCAGAGCUCAACACAGCGUGGGAAAGUGGCUGUGGCUAGACUGCCUCUCUGGAUUCCUCGUCACUCAGCAGGGCAUCUCUGAGAGAAAUGCC [C76G],2.01
10,UACGUAGGUGGUUUUCCCCUGAUAGUGCUAAGGGGGCCUGGAAGUUUGGACUGGGCAGAGCUCAACACAGCGUGGUAAAGUGGCUGUGGCUAGACUGCCUCUCUGGAUUCCUCGUCACUCAGCAGGGCAUCUCUGAGAGAAAUGCC [C76U],2.18
11,UACGUAGGUGGUUUUCCCCUGAUAGUGCUAAGGGGGCCUGGAAGUUUGGACUGGGCAGAGCUCAACACAGCGUGGAAAAGUGGCUGUGGCUAGACUGCCUCUCUGGAUUCCUCGUCACUCAGCAGGGCAUCUCUGAGAGAAAUGCC [C76A],1.71
12,UACGUAGGUGGUUUUCCCCUGAUAGUGCUAAGGGGGCCUGGAAGUUUGGACUGGGCAGAGCUCAACACAGCGUGGAAAAGUGGCUGUGGCUAGACUGCCUCUCUGGAUUCCUCGUCACUCAGCAGGGCAUCCCUGAGAGAAAUGCC [C76A U132C],2.08
13,UACGUAGGUGGUUUUCCCCUGAUAGUGCUAAGGGGGCCUGGAAGUUUGGACUGGGCAGAGCUCAACACAGCGUGUCAAAGUGGCUGUGGCUAGACUGCCUCUCCGGAUUCCUCGUCACUCAGCAGGGCAUCUCUGAGAGAAAUGCC [G75U U104C],1.32
14,UACGUAGGUGGUUUUCCCCUGAUAGUGCUAAGGGGGCCUGGAAGUUUGGACUGGGCAGAGCUCAACACAGCGUGGUAAAGUGGCUGUGGCUAGACUGCCUCUCUGGAUUCCUCGUCUCUCAGCAGGGCAUCUCUGAGAGAAAUGCC [C76U A117U],2.41
15,UACGUAGGUGGUUUUCCCCUGAUAGUGCUAAGGGGGCCUGGAAGUUUGGACUGGGCAGAGCUCAACACAGCGUGGAAAAGUGGCUGCGGCUAGACUGCCUCUCUGGAUUCCUCGUCACUCAGCAGGGCAUCUCUGAGAGAAAUGCC [C76A U87C],0.38
16,UACGUAGGUGGUUUUCCCCUGAUAGUGCUAAGGGGGCCUGGAAGUUUGGACUGGGCAGAGCUCAACACAGCGUGGAAAAGUGGCUGGGGCUAGACUGCCUCUCUGGAUUCCUCGUCACUCAGCAGGGCAUCUCUGAGAGAAAUGCC [C76A U87G],0.11
17,UACGUAGGUGGUUUUCCCCUGAUAGUGCUAAGGGGGCCUGGAAGUUUGGACUGGGCAGAGCUCAACACAGCGUGGUAAAGUGGCUGUGGCUAGACAGCCUCUCUGGAUUCCUCGUCACUCAGCAGGGCAUCUCUGAGAGAAAUGCC [C76U U96A],0.05
18,UACGUAGGUGGUUUUCCCCUGAUAGUGCUAAGGGGGCCUGGAAGUUUGGACUGGGCAGAGCUCAACACAGCGUGGUAAAGUGGCUGUGGCUAGACCGCCUCUCUGGAUUCCUCGUCACUCAGCAGGGCAUCUCUGAGAGAAAUGCC [C76U U96C],0.13
19,UACGUAGGUGGUUUUCCCCUGAUAGUGCUAAGGGGGCCUGGAAGUUUGGACUGGGCAGAGCUCAACACAGCGUGGUAAAGUGGCUGUGGCUAGACUGCCUCUCUGGAUUCCUCGCCACUCAGCAGGGCAUCUCUGAGAGAAAUGCC [C76U U115C],2.12
